Measurements: patent US20170088600A1 (published 2017)
Like-named read-outs stand apart in the source and are kept apart here.

Legend:
Assay in all cases: SPR
[1] = molecular target: T1, TRAIL-R2-Fc M152A/R154A/K155A (human, UniProt O14763 58-184)
T1 chain: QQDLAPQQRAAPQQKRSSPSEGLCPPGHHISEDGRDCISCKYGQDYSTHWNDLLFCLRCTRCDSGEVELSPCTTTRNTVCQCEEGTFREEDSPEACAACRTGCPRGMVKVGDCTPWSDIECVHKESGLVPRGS

UL141 [2] = molecular target: UL141
UL141 [3] = molecular target: UL141; remark: listed apart in the source
UL141 [4] = molecular target: UL141; remark: listed apart in the source
UL141 [5] = molecular target: UL141; remark: listed apart in the source

B1: TRAIL (TNFSF10) ectodomain (ligand)
chain: TNELKQMQDKYSKSGIACFLKEDDSYWDPNDEESMNSPCWQVKWQLRQLVRKMILRTSEETISTVQEKQQNISPLVRERGPQRVAAHITGTRGRSNTLSSPNSKNEKALGRKINSWESSRSGHSFLSNLHLRNGELVIHEKGFYYIYSQTYFRFQEEIKENTKNDKQMVQYIYKYTSYPDPILLMKSARNSCWSKDAEYGLYSIYQGGIFELKENDRIFVSVTNEHLIDMDHEASFFGAFLVG
[1]
  Kd: 7 nM

B2: TRAIL-R2-Fc F112A (Fc fusion)
chain: QQDLAPQQRAAPQQKRSSPSEGLCPPGHHISEDGRDCISCKYGQDYSTHWNDLLACLRCTRCDSGEVELSPCTTTRNTVCQCEEGTFREEDSPEMCRKCRTGCPRGMVKVGDCTPWSDIECVHKESGLVPRGS
UL141 [2]
  Kd: 630 nM

B3: TRAIL-R2-Fc R154A (Fc fusion)
chain: QQDLAPQQRAAPQQKRSSPSEGLCPPGHHISEDGRDCISCKYGQDYSTHWNDLLFCLRCTRCDSGEVELSPCTTTRNTVCQCEEGTFREEDSPEMCAKCRTGCPRGMVKVGDCTPWSDIECVHKESGLVPRGS
UL141 [3]
  Kd: 6 nM

B4: TRAIL-R2-Fc M152A (Fc fusion)
chain: QQDLAPQQRAAPQQKRSSPSEGLCPPGHHISEDGRDCISCKYGQDYSTHWNDLLFCLRCTRCDSGEVELSPCTTTRNTVCQCEEGTFREEDSPEACRKCRTGCPRGMVKVGDCTPWSDIECVHKESGLVPRGS
UL141 [3]
  Kd: 7 nM

B5: TRAIL-R2-Fc K155A (Fc fusion)
chain: QQDLAPQQRAAPQQKRSSPSEGLCPPGHHISEDGRDCISCKYGQDYSTHWNDLLFCLRCTRCDSGEVELSPCTTTRNTVCQCEEGTFREEDSPEMCRACRTGCPRGMVKVGDCTPWSDIECVHKESGLVPRGS
UL141 [3]
  Kd: 8 nM

B6: TRAIL-R2-Fc P150A (Fc fusion)
chain: QQDLAPQQRAAPQQKRSSPSEGLCPPGHHISEDGRDCISCKYGQDYSTHWNDLLFCLRCTRCDSGEVELSPCTTTRNTVCQCEEGTFREEDSAEMCRKCRTGCPRGMVKVGDCTPWSDIECVHKESGLVPRGS
UL141 [2]
  Kd: 8 nM

B7: TRAIL-R2-Fc L110A/L114A (Fc fusion)
chain: QQDLAPQQRAAPQQKRSSPSEGLCPPGHHISEDGRDCISCKYGQDYSTHWNDALFCARCTRCDSGEVELSPCTTTRNTVCQCEEGTFREEDSPEMCRKCRTGCPRGMVKVGDCTPWSDIECVHKESGLVPRGS
UL141 [2]
  Kd: 43 nM

B8: TRAIL-R2-Fc V167A (Fc fusion)
chain: QQDLAPQQRAAPQQKRSSPSEGLCPPGHHISEDGRDCISCKYGQDYSTHWNDLLFCLRCTRCDSGEVELSPCTTTRNTVCQCEEGTFREEDSPEMCRKCRTGCPRGMVKAGDCTPWSDIECVHKESGLVPRGS
UL141 [2]
  Kd: 15 nM

B9: TRAIL-R2-Fc (human TRAIL-R2 aa 58-184, thrombin site, human IgG1 Fc), wild type (Fc fusion)
chain: QQDLAPQQRAAPQQKRSSPSEGLCPPGHHISEDGRDCISCKYGQDYSTHWNDLLFCLRCTRCDSGEVELSPCTTTRNTVCQCEEGTFREEDSPEMCRKCRTGCPRGMVKVGDCTPWSDIECVHKESGLVPRGS
UL141 [4]
  Kd: 5.96 nM
UL141 [2]
  Kd: 6 nM

B10: TRAIL-R2-Fc E78A/D109A (Fc fusion)
chain: QQDLAPQQRAAPQQKRSSPSAGLCPPGHHISEDGRDCISCKYGQDYSTHWNALLFCLRCTRCDSGEVELSPCTTTRNTVCQCEEGTFREEDSPEMCRKCRTGCPRGMVKVGDCTPWSDIECVHKESGLVPRGS
UL141 [5]
  Kd: 60 nM

B11: TRAIL-R2-Fc D148A (Fc fusion)
chain: QQDLAPQQRAAPQQKRSSPSEGLCPPGHHISEDGRDCISCKYGQDYSTHWNDLLFCLRCTRCDSGEVELSPCTTTRNTVCQCEEGTFREEASPEMCRKCRTGCPRGMVKVGDCTPWSDIECVHKESGLVPRGS
UL141 [2]
  Kd: 55 nM
